Data published in article PMC3637499.

Tests used:
Chico-RFP (Drosophila) [1] = target: Chico-RFP (Drosophila) (UniProt Q9XTN2); assay: FRET or BRET; sensitised emission FRET, CFP donor and mRFP acceptor, confocal microscopy of fixed larval salivary glands co-expressing both fusions (hsp-Gal4); glands incubated 15 min in Schneider's medium without insulin; FRETeff >=10% taken as positive
Chico-RFP (Drosophila) [2] = target: Chico-RFP (Drosophila) (UniProt Q9XTN2); assay: FRET or BRET; sensitised emission FRET, CFP donor and mRFP acceptor, confocal microscopy of fixed larval salivary glands co-expressing both fusions (hsp-Gal4); glands incubated 15 min in Schneider's medium with insulin (100 nM); FRETeff >=10% taken as positive
InR-CFP (Drosophila) [3] = target: InR-CFP (Drosophila) (UniProt P09208); assay: FRET or BRET; sensitised emission FRET, CFP donor and mRFP acceptor, confocal microscopy of fixed larval salivary glands co-expressing both fusions (hsp-Gal4); glands incubated 15 min in Schneider's medium without insulin; FRETeff >=10% taken as positive
InR-CFP (Drosophila) [4] = target: InR-CFP (Drosophila) (UniProt P09208); assay: FRET or BRET; sensitised emission FRET, CFP donor and mRFP acceptor, confocal microscopy of fixed larval salivary glands co-expressing both fusions (hsp-Gal4); glands incubated 15 min in Schneider's medium with insulin (100 nM); FRETeff >=10% taken as positive
InR-CFP (Drosophila) [5] = target: InR-CFP (Drosophila) (UniProt P09208); assay: FRET or BRET; sensitised emission FRET, negative controls with Delta-RFP as acceptor in fixed larval salivary glands; insulin condition not stated; absence of FRET yields values <3%
Lnk-CFP (Drosophila) = assay: as above
InR-CFP (Drosophila) [6] = target: InR-CFP (Drosophila) (UniProt P09208); assay: FRET or BRET; sensitised emission FRET, CFP donor and mRFP acceptor, confocal microscopy of fixed larval salivary glands co-expressing both fusions (hsp-Gal4); glands incubated 15 min in Schneider's medium without insulin; FRETeff >=10% taken as positive; remark: listed apart in the source
InR-CFP (Drosophila) [7] = target: InR-CFP (Drosophila) (UniProt P09208); assay: FRET or BRET; sensitised emission FRET, CFP donor and mRFP acceptor, confocal microscopy of fixed larval salivary glands co-expressing both fusions (hsp-Gal4); glands incubated 15 min in Schneider's medium with insulin (100 nM); FRETeff >=10% taken as positive; remark: listed apart in the source

UniProt P09208, sequence (P09208 1086-2144): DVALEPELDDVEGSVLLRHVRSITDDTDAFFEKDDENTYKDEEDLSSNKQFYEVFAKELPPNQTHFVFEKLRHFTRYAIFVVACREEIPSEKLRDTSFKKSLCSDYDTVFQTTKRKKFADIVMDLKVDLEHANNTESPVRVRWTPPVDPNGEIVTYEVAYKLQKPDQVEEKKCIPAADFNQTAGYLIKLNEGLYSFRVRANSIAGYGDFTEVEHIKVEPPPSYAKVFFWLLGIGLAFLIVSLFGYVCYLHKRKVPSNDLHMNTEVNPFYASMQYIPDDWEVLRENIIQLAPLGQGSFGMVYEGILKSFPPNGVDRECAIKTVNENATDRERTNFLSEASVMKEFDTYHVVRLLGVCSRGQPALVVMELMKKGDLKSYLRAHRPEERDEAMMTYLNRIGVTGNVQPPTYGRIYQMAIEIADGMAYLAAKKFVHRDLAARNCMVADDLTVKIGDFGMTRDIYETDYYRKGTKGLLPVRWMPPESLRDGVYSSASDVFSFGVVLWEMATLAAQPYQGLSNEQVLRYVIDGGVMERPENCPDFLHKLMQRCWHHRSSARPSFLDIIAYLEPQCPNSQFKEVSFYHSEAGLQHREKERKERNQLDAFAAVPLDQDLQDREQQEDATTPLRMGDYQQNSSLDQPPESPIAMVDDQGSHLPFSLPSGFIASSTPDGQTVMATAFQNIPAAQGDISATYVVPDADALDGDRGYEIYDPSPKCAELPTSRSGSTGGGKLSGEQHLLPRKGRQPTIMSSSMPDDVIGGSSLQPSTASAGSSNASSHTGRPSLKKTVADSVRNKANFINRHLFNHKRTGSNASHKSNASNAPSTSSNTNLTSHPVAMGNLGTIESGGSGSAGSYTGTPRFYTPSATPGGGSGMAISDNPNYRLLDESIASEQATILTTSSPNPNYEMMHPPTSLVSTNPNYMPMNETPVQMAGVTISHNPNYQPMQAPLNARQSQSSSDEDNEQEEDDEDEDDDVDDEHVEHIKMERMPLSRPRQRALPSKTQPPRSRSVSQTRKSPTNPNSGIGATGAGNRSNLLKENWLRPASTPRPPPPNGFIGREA

Q: Lnk-CFP (natural protein) was tested. Which FRET efficiency (FRETeff) (Chico-RFP (Drosophila) [1]) did it give?
A: Its FRET efficiency (FRETeff) is 13.3%.

Q: What about the percent of tissue samples with positive FRET (Chico-RFP (Drosophila) [1]) of the same molecule?
A: The percent of tissue samples with positive FRET was 30%.

Q: And the FRET efficiency (FRETeff) (Chico-RFP (Drosophila) [2])?
A: The FRET efficiency (FRETeff) was 14.8%.

Q: And the percent of tissue samples with positive FRET (Chico-RFP (Drosophila) [2])?
A: The percent of tissue samples with positive FRET was 73%.

Q: With Lnk-RFP (natural protein) as the molecule, how does the FRET efficiency (FRETeff) (InR-CFP (Drosophila) [3]) read?
A: Its FRET efficiency (FRETeff) is 10.8%.

Q: And the percent of tissue samples with positive FRET (InR-CFP (Drosophila) [3])?
A: Its percent of tissue samples with positive FRET is 60%.

Q: What about the FRET efficiency (FRETeff) (InR-CFP (Drosophila) [4]) of the same molecule?
A: Its FRET efficiency (FRETeff) is 14%.

Q: And the percent of tissue samples with positive FRET (InR-CFP (Drosophila) [4])?
A: The percent of tissue samples with positive FRET was 53%.

B1: Delta-RFP (natural protein)
chain: QVHSSGSFELRLKYFSNDHGRDNEGRCCSGESDGATGKCLGSCKTRFRVCLKHYQATIDTTSQCTYGDVITPILGENSVNLTDAQRFQNKGFTNPIQFPFSFSWPGTFSLIVEAWHDTNNSGNARTNKLLIQRLLVQQVLEVSSEWKTNKSESQYTSLEYDFRVTCDLNYYGSGCAKFCRPRDDSFGHSTCSETGEIICLTGWQGDYCHIPKCAKGCEHGHCDKPNQCVCQLGWKGALCNECVLEPNCIHGTCNKPWTCICNEGWGGLYCNQDLNYCTNHRPCKNGGTCFNTGEGLYTCKCAPGYSGDDCENEIYSCDADVNPCQNGGTCIDEPHTKTGYKCHCANGWSGKMCEEKVLTCSDKPCHQGICRNVRPGLGSKGQGYQCECPIGYSGPNCDLQLDNCSPNPCINGGSCQPSGKCICPAGFSGTRCETNIDDCLGHQCENGGTCIDMVNQYRCQCVPGFHGTHCSSKVDLCLIRPCANGGTCLNLNNDYQCTCRAGFTGKDCSVDIDECSSGPCHNGGTCMNRVNSFECVCANGFRGKQCDEESYDSVTFDAHQYGATTQARADGLTNAQVVLIAVFSVAMPLVAVIAACVVFCMKRKRKRAQEKDDAEARKQNEQNAVATMHHNGSGVGVALASASLGGKTGSNSGLTFDGGNPNIIKNTWDKSVNNICASAAAAAAAAAAADECLMYGGYVASVADNNNANSDFCVAPLQRAKSQKQLNTDPTLMHRGSPAGSSAKGASGGGPGAAEGKRISVLGEGSYCSQRWPSLAAAGVAGACSSQLMAAASVAGSGAGTAQQQRSVVCGTPHM
Q: How did the FRET efficiency (FRETeff) (InR-CFP (Drosophila) [5]) turn out when B1 was run?
A: The FRET efficiency (FRETeff) was less than 3%.

Q: And the FRET efficiency (FRETeff) (Lnk-CFP (Drosophila))?
A: Its FRET efficiency (FRETeff) is less than 3%.

B2: Chico-RFP (natural protein)
chain: MASISDDGMALSGYLKKLKTMKKKFFVLYEETSTSAARLEYYDTEKKFLQRAEPKRVIYLKNCFNINRRLDTKHRFVIVLSSRDGGFGIVLENENDLRKWLDKLLVLQRNIANSNGTAHSPYDHVWQVVIQKKGISEKVGITGTYHCCLTSKSLTFVCIGPEKTPNGEDRVASIEILLTTIRRCGHASPQCIFYVELGRQSVLGSGDLWMETDNAAIATNMHNTILSAMSAKTESNTNLINVYQNRPDLSHEPMRKRSSSANEASKPINVNVIQNSQNSLELRSCSSPHNYGFGRERCDSLPTRNGTLSESSNQTYFGSNHGLRSNTISGIRPHSTNKHSNSPTFTMPLRCSESEESSISVDESDDNGSFSHYRLNTRSSETAIPEENIDDFASAELFSKVTEQNVSDENYIPMNPVNPTDAIHEKEKADMQRLEDASLHFNFPEHASEKLAKDFDLDSDNQCCRPIRAYSIGNKVEHLKFNKRLGHLNDTGQNPNRVRAYSVGSKSKIPRCDLQRVVLVEDNKHEFTANRSQSSITKEGTSYGSSANRQKKSTSAPLLSLKNQINSDRMSDLMEIDFSQATNLEKQKFIKNNEIPKYIENVFPKAPRTDSSSLTLHATSQKDIFNGTKLNNTAITSEDGYLEMKPVGNGYTPSSNCLPMKVEKLKLSDYQTAPPLTATAAPVHDLNKISTYNISAEKWREQPSRSEEKKSNSPLNDNTFSSKPTNVESTSKSHDVHSANQIDCEKVCAQSSDKLNNHLADKIVENNNLDIGGHEEKKLVHSISSEDYTQIKDKSNDFTKFNEAGYKILQIKSDSSLISSKLYQKGIHKDNLERSQRLTESVNTIPDNATATAVSSSSLTKFNINSAKPAAAADSRSTGTDPSTPQNILQIKDLNFPSRSSSRISQPELHYASLDLPHCSGQNPAKYLKRGSRESPPVSACPEDGNTYAKIDFDQSDSSSSSSNIFNT
Q: B2 was tested. Which FRET efficiency (FRETeff) (InR-CFP (Drosophila) [6]) did it give?
A: The FRET efficiency (FRETeff) was 13.5%.

Q: And the percent of tissue samples with positive FRET (InR-CFP (Drosophila) [6])?
A: The percent of tissue samples with positive FRET was 20%.

Q: What about the FRET efficiency (FRETeff) (InR-CFP (Drosophila) [7]) of the same molecule?
A: The FRET efficiency (FRETeff) was 14.1%.

Q: What about the percent of tissue samples with positive FRET (InR-CFP (Drosophila) [7]) of the same molecule?
A: The percent of tissue samples with positive FRET was 71%.
